T1: human 5T4 antigen (Homo sapiens, UniProt Q13641)
T1 sequence (Q13641 32-420): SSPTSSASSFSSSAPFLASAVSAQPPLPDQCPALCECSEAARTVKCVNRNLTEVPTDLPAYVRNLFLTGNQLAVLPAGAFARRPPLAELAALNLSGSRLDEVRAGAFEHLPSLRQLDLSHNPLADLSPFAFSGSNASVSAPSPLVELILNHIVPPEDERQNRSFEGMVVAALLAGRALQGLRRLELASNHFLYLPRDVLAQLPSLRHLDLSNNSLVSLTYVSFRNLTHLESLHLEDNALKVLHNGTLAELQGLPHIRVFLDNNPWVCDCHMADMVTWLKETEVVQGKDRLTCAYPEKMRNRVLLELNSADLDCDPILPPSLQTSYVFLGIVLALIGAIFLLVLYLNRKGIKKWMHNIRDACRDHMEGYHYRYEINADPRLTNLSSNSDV

T2: mouse 5T4 ectodomain/Fc fusion protein (Mus musculus, UniProt Q9Z0L0)
T2 construct: prepared using mouse 5T4 (amino acids 1-361); human IgG1 Fc; made in house; host or cells: COS-1 cells (transient transfection)
T2 sequence (Q9Z0L0 32-361): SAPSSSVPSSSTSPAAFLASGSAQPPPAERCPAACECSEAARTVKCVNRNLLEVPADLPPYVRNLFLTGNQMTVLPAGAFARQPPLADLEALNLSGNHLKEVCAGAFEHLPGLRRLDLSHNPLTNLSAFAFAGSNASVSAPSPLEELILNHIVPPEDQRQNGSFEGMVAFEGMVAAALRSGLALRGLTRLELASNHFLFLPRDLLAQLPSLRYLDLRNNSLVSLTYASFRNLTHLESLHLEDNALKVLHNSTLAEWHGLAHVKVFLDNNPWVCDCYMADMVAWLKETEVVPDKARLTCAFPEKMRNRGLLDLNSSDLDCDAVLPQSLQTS

T3: rat 5T4 ectodomain/Fc fusion protein (Rattus norvegicus, UniProt Q5PQV5)
T3 construct: rat 5T4 (amino acids 1-361); human IgG1 Fc; made in house; host or cells: COS-1 cells (transient transfection)
T3 sequence (Q5PQV5 32-361): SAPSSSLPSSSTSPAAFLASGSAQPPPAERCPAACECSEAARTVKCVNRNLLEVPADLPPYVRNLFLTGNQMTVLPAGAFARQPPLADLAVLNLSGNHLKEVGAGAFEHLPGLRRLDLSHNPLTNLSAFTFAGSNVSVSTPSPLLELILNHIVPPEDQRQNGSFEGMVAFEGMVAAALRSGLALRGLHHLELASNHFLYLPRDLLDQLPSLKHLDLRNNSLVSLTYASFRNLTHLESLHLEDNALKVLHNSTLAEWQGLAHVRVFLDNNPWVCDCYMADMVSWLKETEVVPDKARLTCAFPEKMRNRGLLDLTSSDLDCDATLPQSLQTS


How the values were obtained:
human 5T4 antigen [1] = molecular target: T1, human 5T4 antigen; assay: BIACORE analysis of antibody binding to human 5T4 antigen immobilized on a CM5 chip; conditions: chimeric and humanized antibodies, Table 12
Procedure: To assess the binding specificity and affinity of the A1, A2, and A3 antibodies, BIACORE® analysis was performed using human 5T4 antigen immobilized on a CM5 chip. BIACORE® technology utilizes changes in the refractive index at the surface layer upon binding of the antibody to the 5T4 antigen immobilized on the layer. Binding is detected by surface plasmon resonance (SPR) of laser light refracting from the surface. Analysis of the signal kinetics on rate and off rate allows discrimination between non-specific and specific interactions. The H8 anti-5T4 antibody was used as a control. H8 is a hybridoma-generated monoclonal mouse IgG1 antibody described in PCT International Publication No. WO 98/55607 and in Forsberg et al. (1997) J. Biol. Chem. 272(19):[…].
To assess the binding specificity and affinity of the chimeric and humanized H8, A1, A2, and A3 antibodies, BIACORE® analysis was performed using human 5T4 antigen immobilized on a CM5 chip. See Example 2.

human 5T4 antigen [2] = molecular target: T1, human 5T4 antigen; assay: BIACORE competition assay: second antibody after saturation with first antibody; type: binding
Procedure: Epitope mapping of the H8, A1, A2, and A3 antibodies was also performed using BIACORE® using a CM5 chip with bound human 5T4 antigen. The chip was saturated with H8, A1, A2, or A3 antibody, and a first response was measured. The chip was then saturated with a second antibody from among the H8, A1, A2, and A3 antibodies, and a second response was measured. For multiple experiments, the chip was regenerated by dissociation of the bound antibodies in 10 mM glycine, pH 1.5, followed by a buffer wash. The percentages shown are the response units measured upon binding by a second antibody directly to the CM5 chip divided by the response units measured upon binding of the second antibody to a CM5 chip saturated with a first antibody.
The epitopes bound by the H8 and A3 antibodies are sterically close to each other such that the rate of association with antigen is decreased when binding of H8 is assayed in the presence of A3, and vice versa. Similar results were obtained using the chimeric and humanized H8, A1, A2, and A3 antibodies, which were prepared as described in Example 7 herein below.

[3] = molecular target: T2, mouse 5T4 ectodomain/Fc fusion protein; assay: Cross-species reactivity ELISA, 5T4 ectodomain/Fc fusion proteins; type: binding; parameters: key: +: binding; −: no binding; +/−: partial binding
Procedure: (§1) The cross-species reactivity of anti-5T4 antibodies disclosed herein was assayed to determine relevant species for in vivo efficacy studies and toxicology analysis. Correlation of binding activity and relatedness of the different 5T4 ectodomains was also used to further describe the epitope bound by each antibody. Binding assays were performed using 5T4 ectodomains from various species fused to human IgG1 Fc. To assay binding of anti-5T4 antibodies, 5T4 ectodomain/Fc fusion proteins were transiently transfected into COS-1 cells, and ELISA assays were performed. Non-relevant human IgG4 and IgG1 antibodies were used as controls.

[4] = molecular target: T3, rat 5T4 ectodomain/Fc fusion protein; assay: as above; type: binding; parameters: key: +: binding; −: no binding; +/−: partial binding
Procedure: as §1

[5] = first antibody chimeric A3, 19 seconds after injection of second antibody
[6] = first antibody chimeric A3, 37.5 seconds after injection of second antibody
[7] = first antibody chimeric A3, 75 seconds after injection of second antibody
[8] = first antibody chimeric A3, 150 seconds after injection of second antibody
[9] = first antibody chimeric A3, 300 seconds after injection of second antibody
[10] = first antibody chimeric A3, 600 seconds after injection of second antibody

Row | Molecule | KA (human 5T4 antigen [1]) [M⁻¹] | ka (human 5T4 antigen [1]) [M⁻¹ s⁻¹] | kd (human 5T4 antigen [1]) [s⁻¹] | Percentage of Second Antibody Bound Following Saturation With First Antibody (human 5T4 antigen [2]; [5]) [%] | Percentage of Second Antibody Bound Following Saturation With First Antibody (human 5T4 antigen [2]; [6]) [%] | Percentage of Second Antibody Bound Following Saturation With First Antibody (human 5T4 antigen [2]; [7]) [%] | Percentage of Second Antibody Bound Following Saturation With First Antibody (human 5T4 antigen [2]; [8]) [%] | Percentage of Second Antibody Bound Following Saturation With First Antibody (human 5T4 antigen [2]; [9]) [%] | Percentage of Second Antibody Bound Following Saturation With First Antibody (human 5T4 antigen [2]; [10]) [%] | cross-reactivity (binding class) [3] | cross-reactivity (binding class) [4] | other results
1 | Chimeric A3 + C91Y: chimeric A3 antibody bearing C91Y mutation in the heavy chain variable region (antibody, V domains shown) VH: EVQLVESGGGLVQPKGSLKLSCAASGFTFNTYAMNWVRQAPGKGLEWVARIRSKSNNYATYYADSVKDRFTISRDDSQSMLYLQMNNLKTEDTAMYYCVRQWDYDVRAMNYWGQGTSVTVSS VL: DIVMTQSHIFMSTSVGDRVSITCKASQDVDTAVAWYQQKPGQSPKLLIYWASTRLTGVPDRFTGSGSGTDFTLTISNVQSEDLADYFCQQYSSYPYTFGGGTKLEIK | 1.7e+09 | 27000 | 1.6e-05 |  |  |  |  |  |  |  |  | Kd (human 5T4 antigen [1]): 5.9 nM
2 | chimeric A1: chimeric A1 antibody: murine A1 variable regions, human IgG4 heavy chain and human kappa light chain constant regions (antibody, V domains shown) VH: QIQLVQSGPELKKPGETVKISCKASGYTFTNFGMNWVKQGPGEGLKWMGWINTNTGEPRYAEEFKGRCAFSLETTASTAYLQINNLKNEDTATYFCARDWDGAYFFDYWGQGTTLTVSS VL: SIVMTQTPKFLLVSAGDRVTITCKASQSVSNDVAWYQQKPGQSPKLLINFATNRYTGVPNRFTGSGYGTDFTFTISTVQAEDLALYFCQQDYSSPWTFGGGTKLEIK | 2.3e+09 | 150000 | 6.7e-05 | 98.8 | 96.5 | 97.0 | 98.0 | 98.8 | 99.6 | − | +/− | Percentage of Second Antibody Bound Following Saturation With First Antibody (human 5T4 antigen [2]; first antibody chimeric A2, 19 seconds after injection of second antibody): 92.5%; Percentage of Second Antibody Bound Following Saturation With First Antibody (human 5T4 antigen [2]; first antibody chimeric A2, 37.5 seconds after injection of second antibody): 90.6%; Percentage of Second Antibody Bound Following Saturation With First Antibody (human 5T4 antigen [2]; first antibody chimeric A2, 75 seconds after injection of second antibody): 91.4%; Percentage of Second Antibody Bound Following Saturation With First Antibody (human 5T4 antigen [2]; first antibody chimeric A2, 300 seconds after injection of second antibody): 93.9%; Percentage of Second Antibody Bound Following Saturation With First Antibody (human 5T4 antigen [2]; first antibody chimeric A2, 600 seconds after injection of second antibody): 95.5%
3 | Chimeric A1 + C67F: chimeric A1 antibody bearing C67F mutation in the heavy chain variable region (antibody, V domains shown) VH: QIQLVQSGPELKKPGETVKISCKASGYTFTNFGMNWVKQGPGEGLKWMGWINTNTGEPRYAEEFKGRFAFSLETTASTAYLQINNLKNEDTATYFCARDWDGAYFFDYWGQGTTLTVSS VL: SIVMTQTPKFLLVSAGDRVTITCKASQSVSNDVAWYQQKPGQSPKLLINFATNRYTGVPNRFTGSGYGTDFTFTISTVQAEDLALYFCQQDYSSPWTFGGGTKLEIK | 2.6e+09 | 170000 | 6.3e-05 |  |  |  |  |  |  |  |  | 
4 | chimeric A2: chimeric A2 antibody: murine A2 variable regions, human IgG4 heavy chain and human kappa light chain constant regions (antibody, V domains shown) VH: QVQLQQSRPELVKPGASVKMSCKASGYTFTDYVISWVKQRTGQGLEWIGEIYPGSNSIYYNEKFKGRATLTADKSSSTAYMQLSSLTSEDSAVYFCAMGGNYGFDYWGQGTTLTVSS VL: QIVLTQSPAIMSASLGERVTLTCTASSSVNSNYLHWYQQKPGSSPKLWIYSTSNLASGVPARFSGSGSGTSYSLTISSMEAEDAATYYCHQYHRSPLTFGAGTKLELK | 5.7e+08 | 140000 | 0.00025 | 89.2 | 88.4 | 89.8 | 91.5 | 92.9 | 94.3 | − | − | Percentage of Second Antibody Bound Following Saturation With First Antibody (human 5T4 antigen [2]; first antibody chimeric A1, 19 seconds after injection of second antibody): 102.9%; Percentage of Second Antibody Bound Following Saturation With First Antibody (human 5T4 antigen [2]; first antibody chimeric A1, 37.5 seconds after injection of second antibody): 93.5%; Percentage of Second Antibody Bound Following Saturation With First Antibody (human 5T4 antigen [2]; first antibody chimeric A1, 75 seconds after injection of second antibody): 90.1%; Percentage of Second Antibody Bound Following Saturation With First Antibody (human 5T4 antigen [2]; first antibody chimeric A1, 150 seconds after injection of second antibody): 89.0%; Percentage of Second Antibody Bound Following Saturation With First Antibody (human 5T4 antigen [2]; first antibody chimeric A1, 300 seconds after injection of second antibody): 88.9%; Percentage of Second Antibody Bound Following Saturation With First Antibody (human 5T4 antigen [2]; first antibody chimeric A1, 600 seconds after injection of second antibody): 89.1%

From patent US20070231333A1, “ANTI-5T4 ANTIBODIES AND USES THEREOF” (Wyeth, priority 2006, published 2007)
